Test [1] has as its target T1, human LILRB1 on cells (human, UniProt Q8NHL6 24-650).
T1 construct: whole, on cells; also called hLILRB1; LILRB1-expressing 721.221 cells
Briefly: flow cytometry, HEK293-6E transfectants. Summed up: (§1)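 Antibody binding measured by flow cytometry on HEK293-6E cells transiently transfected with individual human LILRB (1–5) or LILRA (1, 2, 4, 5, 6) plasmids. Antibodies tested at 1 μg/mL.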

The target in test [2] is T2, human LILRB2 on cells (human, UniProt Q8N423 22-597).
T2 construct: whole, on cells; also called hLILRB2; LILRB2-HEK293T
T2 sequence (Q8N423 22-597): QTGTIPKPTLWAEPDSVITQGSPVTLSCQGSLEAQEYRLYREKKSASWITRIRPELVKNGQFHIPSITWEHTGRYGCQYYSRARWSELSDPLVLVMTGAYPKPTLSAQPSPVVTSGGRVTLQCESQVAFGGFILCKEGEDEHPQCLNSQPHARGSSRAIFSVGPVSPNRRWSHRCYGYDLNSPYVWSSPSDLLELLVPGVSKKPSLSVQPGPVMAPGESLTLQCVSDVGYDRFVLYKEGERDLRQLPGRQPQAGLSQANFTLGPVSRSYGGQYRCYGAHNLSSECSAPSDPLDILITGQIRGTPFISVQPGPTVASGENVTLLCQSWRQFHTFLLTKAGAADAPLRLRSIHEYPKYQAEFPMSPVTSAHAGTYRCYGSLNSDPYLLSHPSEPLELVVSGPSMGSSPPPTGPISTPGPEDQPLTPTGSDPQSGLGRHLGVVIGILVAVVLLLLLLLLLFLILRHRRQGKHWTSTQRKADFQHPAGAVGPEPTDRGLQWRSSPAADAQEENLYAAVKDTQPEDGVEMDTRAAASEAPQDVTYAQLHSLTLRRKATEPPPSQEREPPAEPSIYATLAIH
The test can be described thus: flow cytometry, HEK293-6E transfectants. Put shortly:
as §1

In test [3] the target is T3, human LILRB3 on HEK293-6E cells (human, UniProt O75022 24-631).
T3 construct: whole, on cells; also called hLILRB3
T3 sequence (O75022 24-631): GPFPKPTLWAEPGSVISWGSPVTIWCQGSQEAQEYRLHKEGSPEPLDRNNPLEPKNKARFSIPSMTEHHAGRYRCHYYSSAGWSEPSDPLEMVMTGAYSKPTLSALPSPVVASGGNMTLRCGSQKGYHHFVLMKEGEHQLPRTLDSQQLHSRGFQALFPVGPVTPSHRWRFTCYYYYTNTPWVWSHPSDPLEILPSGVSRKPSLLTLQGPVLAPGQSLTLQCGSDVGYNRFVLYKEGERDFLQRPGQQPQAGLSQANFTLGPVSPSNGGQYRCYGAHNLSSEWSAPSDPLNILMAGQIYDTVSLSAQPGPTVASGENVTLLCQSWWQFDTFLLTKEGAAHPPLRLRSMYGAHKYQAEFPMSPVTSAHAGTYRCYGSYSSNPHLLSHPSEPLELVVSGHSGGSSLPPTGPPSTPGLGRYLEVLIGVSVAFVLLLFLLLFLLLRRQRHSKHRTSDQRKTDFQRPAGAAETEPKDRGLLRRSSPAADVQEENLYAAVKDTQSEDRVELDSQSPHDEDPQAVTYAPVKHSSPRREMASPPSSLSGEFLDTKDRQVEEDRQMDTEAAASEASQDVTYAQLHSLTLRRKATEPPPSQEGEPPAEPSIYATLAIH
Briefly: flow cytometry, HEK293-6E transfectants. Put shortly:
as §1

Test [4] concerns the target T4, human LILRB4 on HEK293-6E cells (human, UniProt Q8NHJ6 22-448).
T4 construct: whole, on cells; also called hLILRB4
The test can be described thus: flow cytometry, HEK293-6E transfectants. Summed up: as §1

Test [5] deals with T5, human LILRB5 on HEK293-6E cells (human, UniProt O75023 24-590).
T5 construct: whole, on cells; also called hLILRB5
The test can be described thus: flow cytometry, HEK293-6E transfectants. Put shortly: as §1

Test [6] has as its target T6, human LILRA1 on HEK293-6E cells (human, UniProt O75019 17-489).
T6 construct: whole, on cells; also called hLILRA1
Briefly: flow cytometry, HEK293-6E transfectants. Summed up: as §1

Test [7] addresses T7, human LILRA2 on HEK293-6E cells (human, UniProt Q8N149 24-483).
T7 construct: whole, on cells; also called hLILRA2
The test can be described thus: flow cytometry, HEK293-6E transfectants. Summed up:
as §1

Test [8] deals with T8, human LILRA4 on HEK293-6E cells (human, UniProt P59901 24-499).
T8 construct: whole, on cells; also called hLILRA4
T8 sequence (P59901 24-499): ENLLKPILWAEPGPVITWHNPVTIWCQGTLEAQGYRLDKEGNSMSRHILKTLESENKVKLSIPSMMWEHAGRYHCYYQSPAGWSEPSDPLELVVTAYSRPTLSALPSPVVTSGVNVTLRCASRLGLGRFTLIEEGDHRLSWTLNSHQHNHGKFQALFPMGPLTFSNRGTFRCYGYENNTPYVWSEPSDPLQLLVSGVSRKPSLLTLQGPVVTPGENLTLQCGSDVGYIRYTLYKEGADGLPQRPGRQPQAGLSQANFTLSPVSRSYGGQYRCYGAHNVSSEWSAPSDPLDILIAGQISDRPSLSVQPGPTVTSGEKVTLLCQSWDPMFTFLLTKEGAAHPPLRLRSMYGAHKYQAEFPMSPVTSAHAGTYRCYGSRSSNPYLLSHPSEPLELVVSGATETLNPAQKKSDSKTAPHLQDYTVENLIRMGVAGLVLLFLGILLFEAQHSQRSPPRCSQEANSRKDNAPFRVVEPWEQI
Briefly: flow cytometry, HEK293-6E transfectants. Summed up:
as §1

Test [9] deals with T9, human LILRA5 on HEK293-6E cells (human, UniProt A6NI73 42-299).
T9 construct: whole, on cells; also called hLILRA5
T9 sequence (A6NI73 42-299): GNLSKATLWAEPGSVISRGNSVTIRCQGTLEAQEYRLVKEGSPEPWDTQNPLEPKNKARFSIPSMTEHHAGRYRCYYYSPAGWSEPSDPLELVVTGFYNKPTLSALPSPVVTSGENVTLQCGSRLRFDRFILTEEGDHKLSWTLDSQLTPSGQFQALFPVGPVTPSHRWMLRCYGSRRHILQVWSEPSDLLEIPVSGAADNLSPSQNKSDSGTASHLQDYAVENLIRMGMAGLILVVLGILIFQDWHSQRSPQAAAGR
Briefly: flow cytometry, HEK293-6E transfectants. Put shortly:
as §1

The target of test [10] is T10, human LILRA6 on HEK293-6E cells (human, UniProt Q6PI73 24-481).
T10 construct: whole, on cells; also called hLILRA6
T10 sequence (Q6PI73 24-481): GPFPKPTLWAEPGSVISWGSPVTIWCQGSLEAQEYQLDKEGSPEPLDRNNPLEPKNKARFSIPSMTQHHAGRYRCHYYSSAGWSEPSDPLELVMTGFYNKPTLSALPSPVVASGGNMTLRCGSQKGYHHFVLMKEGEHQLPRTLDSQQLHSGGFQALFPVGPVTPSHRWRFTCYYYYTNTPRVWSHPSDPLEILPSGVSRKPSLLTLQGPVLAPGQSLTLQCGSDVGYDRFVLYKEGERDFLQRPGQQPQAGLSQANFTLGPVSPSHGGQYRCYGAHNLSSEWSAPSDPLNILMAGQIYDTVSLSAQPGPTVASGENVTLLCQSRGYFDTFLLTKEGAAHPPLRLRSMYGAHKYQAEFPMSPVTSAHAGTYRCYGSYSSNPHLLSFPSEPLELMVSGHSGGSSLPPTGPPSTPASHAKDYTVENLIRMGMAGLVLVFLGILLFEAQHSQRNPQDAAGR
Briefly: flow cytometry, HEK293-6E transfectants. Summed up: as §1

In test [11] the target is T11, recombinant human LILRB1-His (human, UniProt Q8NHL6 24-458).
T11 construct: Bought protein; also called LILRB1 protein
T11 sequence (Q8NHL6 24-458 limits assumed): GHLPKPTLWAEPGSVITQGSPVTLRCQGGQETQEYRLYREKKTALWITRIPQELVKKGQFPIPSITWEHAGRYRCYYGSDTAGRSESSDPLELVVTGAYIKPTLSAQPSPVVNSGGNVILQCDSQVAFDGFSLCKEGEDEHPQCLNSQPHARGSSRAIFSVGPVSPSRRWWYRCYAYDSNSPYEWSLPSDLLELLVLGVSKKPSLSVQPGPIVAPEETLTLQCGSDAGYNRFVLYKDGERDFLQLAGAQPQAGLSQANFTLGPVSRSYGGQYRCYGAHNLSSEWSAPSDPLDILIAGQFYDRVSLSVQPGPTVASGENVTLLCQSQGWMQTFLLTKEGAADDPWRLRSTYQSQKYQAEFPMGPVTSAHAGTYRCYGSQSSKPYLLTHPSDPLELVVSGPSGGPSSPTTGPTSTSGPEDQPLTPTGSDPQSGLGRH
The test can be described thus: MSD ELISA, coated antigen, purified IgG1.

Test [12] deals with T12, recombinant human LILRB2-His (human, UniProt Q8N423 22-461, limits assumed).
T12 construct: Bought protein; also called LILRB2 protein
T12 sequence (Q8N423 22-461 limits assumed): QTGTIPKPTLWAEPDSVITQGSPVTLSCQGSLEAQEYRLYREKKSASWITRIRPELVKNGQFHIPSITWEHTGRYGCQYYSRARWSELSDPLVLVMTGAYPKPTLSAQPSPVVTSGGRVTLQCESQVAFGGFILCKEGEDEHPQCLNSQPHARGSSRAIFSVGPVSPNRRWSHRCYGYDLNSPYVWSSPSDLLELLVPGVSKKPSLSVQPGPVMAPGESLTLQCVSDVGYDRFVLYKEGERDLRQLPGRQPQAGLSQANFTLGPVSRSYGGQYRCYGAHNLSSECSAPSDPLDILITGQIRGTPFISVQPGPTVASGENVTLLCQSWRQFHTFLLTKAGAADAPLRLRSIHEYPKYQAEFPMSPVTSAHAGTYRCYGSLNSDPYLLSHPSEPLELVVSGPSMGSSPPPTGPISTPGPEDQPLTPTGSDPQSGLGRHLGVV
The test can be described thus: MSD ELISA, coated antigen, purified IgG1.

Test [13] deals with T13, recombinant cynomolgus LILRB1 (cynomolgus).
T13 construct: Bought protein
Briefly: MSD ELISA, coated antigen, purified IgG1.

In test [14] the target is T1, human LILRB1 on cells. The test can be described thus: flow cytometry, 721.221 cells, AF647-labelled antibody. Put shortly:
(§2)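 Cells were blocked 30 min at 4° C in FACS buffer with 10% FBS and 0.5 mg/mL human IgG1. AF647-labelled antibodies were then bound for 1 h at 4° C. After Zombie Violet viability staining, binding was read by flow cytometry.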

Test [15] deals with T2, human LILRB2 on cells. The test can be described thus: flow cytometry, LILRB2-HEK293T cells, AF647-labelled antibody. Summed up: as §2
Test [16] deals with T1, human LILRB1 on cells. The test can be described thus: flow cytometry, AF647-labelled antibody at 10 µg/mL on human PBMC, gate: CD56dim CD16+ NK cells (LILRB1-expressing subset per paragraph 345). As for the experimental part: To further characterize the binding of LILRB2/1 antibodies to LILRB1 expressing immune cell subsets (namely, B, T, and NK cells), binding assays were performed with primary human PBMCs. Single cell suspensions of peripheral blood mononuclear cells (PBMCs) from healthy donors were seeded at 0.5 million per well in 96-well plates (Thermo Fisher, No. 249946). PBMCs were blocked with 0.5 mg/mL of human IgG1 myeloma plasma (Athens Research, No. 16-16-090707-1M) in FACS Buffer (PBS containing 2% FBS, 2 mM EDTA and 0.05% NaN₃) for 45 min to 1 h at 4° C. The immune cell phenotyping antibodies and indicated AlexaFluor647-labeled test antibodies were then added to the cells and incubated for 45 min to 1 h at 4° C.
Cells were washed 1× with PBS and stained with the Zombie Violet™ fixable viability dye for 15 min at RT for live cell discrimination. Cells were washed 1× with FACS Buffer, fixed, and acquired on a FACS Symphony cytometer (BD Biosciences). Data analysis was performed using the FlowJo software (v10.8.1). […]

T6 sequence (O75019 17-489): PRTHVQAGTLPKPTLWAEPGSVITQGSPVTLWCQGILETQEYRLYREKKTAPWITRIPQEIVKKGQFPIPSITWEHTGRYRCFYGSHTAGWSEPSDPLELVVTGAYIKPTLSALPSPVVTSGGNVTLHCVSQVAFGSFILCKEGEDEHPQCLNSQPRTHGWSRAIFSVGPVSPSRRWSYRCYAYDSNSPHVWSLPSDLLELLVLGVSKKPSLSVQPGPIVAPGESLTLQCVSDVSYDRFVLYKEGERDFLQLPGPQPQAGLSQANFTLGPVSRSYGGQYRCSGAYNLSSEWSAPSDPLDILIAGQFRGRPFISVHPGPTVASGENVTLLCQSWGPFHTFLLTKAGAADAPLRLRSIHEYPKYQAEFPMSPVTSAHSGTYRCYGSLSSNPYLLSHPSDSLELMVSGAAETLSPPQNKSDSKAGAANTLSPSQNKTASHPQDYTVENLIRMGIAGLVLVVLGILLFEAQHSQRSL
T1 sequence (Q8NHL6 24-650): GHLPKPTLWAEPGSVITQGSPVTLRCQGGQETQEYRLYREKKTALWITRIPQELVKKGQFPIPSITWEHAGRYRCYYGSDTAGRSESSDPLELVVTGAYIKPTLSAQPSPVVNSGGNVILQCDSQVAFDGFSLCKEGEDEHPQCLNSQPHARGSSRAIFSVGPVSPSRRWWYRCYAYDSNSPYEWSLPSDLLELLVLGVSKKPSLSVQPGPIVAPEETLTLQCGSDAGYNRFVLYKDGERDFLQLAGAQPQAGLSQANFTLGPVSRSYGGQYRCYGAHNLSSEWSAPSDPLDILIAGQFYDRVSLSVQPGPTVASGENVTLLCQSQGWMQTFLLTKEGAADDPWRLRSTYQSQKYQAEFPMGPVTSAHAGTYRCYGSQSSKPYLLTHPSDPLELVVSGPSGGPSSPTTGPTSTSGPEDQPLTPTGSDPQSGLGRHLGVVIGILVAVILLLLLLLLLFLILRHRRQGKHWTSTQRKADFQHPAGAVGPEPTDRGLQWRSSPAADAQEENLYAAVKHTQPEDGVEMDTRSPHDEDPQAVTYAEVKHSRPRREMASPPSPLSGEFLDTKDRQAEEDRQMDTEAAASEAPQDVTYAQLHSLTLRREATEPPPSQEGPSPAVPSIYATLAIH
T7 sequence (Q8N149 24-483): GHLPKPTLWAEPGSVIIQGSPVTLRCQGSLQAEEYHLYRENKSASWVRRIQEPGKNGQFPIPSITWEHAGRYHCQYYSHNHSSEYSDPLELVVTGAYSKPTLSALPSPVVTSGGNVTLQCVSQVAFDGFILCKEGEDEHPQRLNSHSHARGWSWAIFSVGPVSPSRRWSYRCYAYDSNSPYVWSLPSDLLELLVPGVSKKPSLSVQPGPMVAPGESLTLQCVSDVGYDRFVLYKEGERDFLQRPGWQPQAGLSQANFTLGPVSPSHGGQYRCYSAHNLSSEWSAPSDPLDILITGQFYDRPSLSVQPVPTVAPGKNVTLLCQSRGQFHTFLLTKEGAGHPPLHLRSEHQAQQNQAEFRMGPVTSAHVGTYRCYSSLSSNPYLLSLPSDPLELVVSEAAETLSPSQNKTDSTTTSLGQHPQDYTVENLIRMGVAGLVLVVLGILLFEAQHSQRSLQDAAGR

B1: B21H1-32 (antibody, human IgG1, kappa)
heavy: not shown
light: DIQMTQSPSSLSASVGDRVTITCQASGNIYSFLAWYQQKPGKVPKLLIYTASNLETGVPSRFSGSGSGTDYTLTISSLQSEDAATYYCLGGLYSSDVSYAFGGGTKVVIKRTVAAPSVFIFPPSDEQLKSGTASVVCLLNNFYPREAKVQWKVDNALQSGNSQESVTEQDSKDSTYSLSSTLTLSKADYEKHKVYACEVTHQGLSSPVTKSFNRGEC
notes: humanized IgG1/kappa, VH3+VL2
Turning to B1, the MFI turned out to be 1040 MFI with human LILRB1 on cells [1]; 5460 MFI in the test with human LILRB2 on cells [2]; 99.2 MFI in test [3]; 28.8 MFI in test [4]; 87.9 MFI in [5]; 249 MFI in test [6]. In addition, the MFI in test [7] stood at 27.8 MFI; in test [8] it was 126 MFI; in [9] it was 74 MFI; in test [10], 142 MFI. Besides, the binding result in [3], in [4], in test [5], in test [6], in [7] and in [8] was “no binding (tested: 1 µg/mL)” each time. Moreover, the binding result in test [9] and in test [10] was “no binding (tested: 1 µg/mL)” each time. The EC50 in test [11] is 0.00646 mg/L; in test [12] it was 0.0219 mg/L; in test [13] it was 0.272 mg/L; with human LILRB1 on cells [14], 0.0518 mg/L; in the test with human LILRB2 on cells [15], 0.00123 mg/L.

B2: Comp 3 (antibody, human IgG1, kappa, N297G, V domains shown)
VH: QVQLVQSGAEVKKPGASVKVSCKASGYTFTDYYINWVRQAPGQGLEWMGNVNPNDGGTTYNQKFKGRVTMTTDTSTSTAYMELRSLRSDDTAVYYCARREIYFYGTIYYYAMDYWGQGTLVTVSS
VL: DIQLTQSPSFLSASVGDRVTITCRASESVDYYGNSFMYWYQQKPGKAPKLLIYFASNLESGVPSRFSGSGSGTEFTLTISSLQPEDFATYYCQQNNEDPWTFGGGTKVEIKR
notes: The text says 'a LILRB2/1 antibody (Comp 3); also called comparator LILRB2/1 antibody
Take B2: the binding result in the test with human LILRB1 on cells [16] is recorded as “binds”.

B3: B21H1-55 (antibody, human IgG1, kappa)
heavy: not shown
light: DIQMTQTPSTVEASVGGTVTITCQASGNIYSFLAWYQQKPGQPPKLLIYTASNLETGVPSRFSGSGSGTEYTLTISGLQSDDAATYYCLGGLYSSDVSYAFGGGTEVVVKRTVAAPSVFIFPPSDEQLKSGTASVVCLLNNFYPREAKVQWKVDNALQSGNSQESVTEQDSKDSTYSLSSTLTLSKADYEKHKVYACEVTHQGLSSPVTKSFNRGEC
notes: humanized IgG1/kappa, VH5+VL5
With B3, the MFI came out at 1030 MFI in the test with human LILRB1 on cells [1]; 4120 MFI in the test with human LILRB2 on cells [2]; 108 MFI in [3]; 33.5 MFI in test [4]; 94.8 MFI in test [5]; 332 MFI in test [6]. For the same molecule, the MFI in test [7] was determined as 27.9 MFI; in [8], 144 MFI; in test [9], 77.4 MFI; in test [10], 148 MFI. In addition, the binding result in test [3], in test [4], in test [5], in test [6], in [7] and in [8] was “no binding (tested: 1 µg/mL)” each time. The binding result in test [9] and in [10] was “no binding (tested: 1 µg/mL)” each time. For the same molecule, the EC50 in test [11] was 0.00944 mg/L; in [12], 0.0369 mg/L; in test [13], 0.25 mg/L; with human LILRB1 on cells [14], 0.0507 mg/L; in the test with human LILRB2 on cells [15] it was 0.00071 mg/L.

B4: B21H1-14 (antibody, human IgG1, kappa)
heavy: not shown
light: DVVMTQSPSTVSASVGDRVTLTCQASGNIYSFLAWYQQKPGQPPKLLIYTASNLETGVPDRFSGSGSGTDYTLTISSLQADDFATYYCLGGLYSSDVSYAFGQGTKVEIKRTVAAPSVFIFPPSDEQLKSGTASVVCLLNNFYPREAKVQWKVDNALQSGNSQESVTEQDSKDSTYSLSSTLTLSKADYEKHKVYACEVTHQGLSSPVTKSFNRGEC
notes: humanized IgG1/kappa, VH1+VL4
As to B4, the MFI in the test with human LILRB1 on cells [1] turned out to be 988 MFI; in the test with human LILRB2 on cells [2], 5760 MFI; in test [3] it was 104 MFI; in test [4], 33.5 MFI; in test [5], 93.3 MFI; in test [6], 249 MFI. For the same molecule, the MFI in test [7] came to 28.6 MFI; in test [8] it was 140 MFI; in test [9], 78.3 MFI; in test [10], 151 MFI. Besides, the binding result in [3], in [4], in test [5], in test [6], in test [7] and in test [8] was “no binding (tested: 1 µg/mL)” in each case. Besides, the binding result in [9] and in test [10] was “no binding (tested: 1 µg/mL)” throughout. Moreover, the EC50 in test [11] came out at 0.00593 mg/L; in test [12], 0.0187 mg/L; in test [13], 0.45 mg/L; with human LILRB1 on cells [14], 0.0552 mg/L; with human LILRB2 on cells [15] it was 0.0011 mg/L.

B5: Comp 1 (anti-LILRB1 antibody) (antibody, human IgG1, kappa, V domains shown)
VH: QVQLKESGPGLVAPSQSLSITCTVSGFSLTNYGVSWVRQPPGKGLEWLGIIWGDGSTNYHSALISRLSISKDNSKSQVFLKLNSLQADDTATYYCAKPNWDTYAMDFWGQGTSVTVSS
VL: DIQMTQTTSSLSASLGDRVTISCRASQDISNFLNWYQQKPDGTVKLLIYCTSKLHSGVPSRFSGSGSETDYSLTISNLEQEDIATYFCQQGNTLPPTFGGGTKLEIIR
In the case of B5, the binding result in the test with human LILRB1 on cells [16] was “binds”.

Values taken from patent US20250002577A1 (ONCORESPONSE, published 2025).
